The values that follow come from patent US20250059288A1 (GRANITE BIO, published 2025).

Substitutions are numbered along the chain they refer to.

The target in assay [1] is T1, Human CCR2b (hCCR2b) (human, UniProt P41597-2 1-360).
T1 construct: also called CD192; MCP-1 receptor
T1 sequence: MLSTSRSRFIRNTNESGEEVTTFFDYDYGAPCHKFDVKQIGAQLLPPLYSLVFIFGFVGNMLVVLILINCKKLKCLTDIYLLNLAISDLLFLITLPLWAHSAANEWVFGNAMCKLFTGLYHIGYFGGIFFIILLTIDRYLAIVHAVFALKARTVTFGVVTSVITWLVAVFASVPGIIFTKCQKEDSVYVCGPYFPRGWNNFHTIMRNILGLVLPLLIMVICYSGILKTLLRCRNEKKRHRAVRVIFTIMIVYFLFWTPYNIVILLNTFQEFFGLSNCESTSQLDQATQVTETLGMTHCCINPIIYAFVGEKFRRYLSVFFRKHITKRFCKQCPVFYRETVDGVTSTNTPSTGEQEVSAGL
Description: flow cytometry on human whole blood, 0.5 µg/ml. An excerpt:
Y4T3 was humanized by CDR-grafting resulting in hY4T3. Databases of Human IgG sequences and human germline sequences were searched for comparison to the murine VH domain and VL domain using BLAST search algorithms, and candidate human variable domains selected from the top 200 BLAST results. These were reduced to five candidates for VH (HC1-HC5 or H1-H5) and five candidates for VL (LC1-LC5 or L1-L5) based on a combination of framework homology, maintaining key framework residues and canonical loop structure. In total 25 humanized variants of Y4T3 were generated. The humanized Y4T3 variants were tested for binding to human CCR2+ monocytes in whole human blood by flow cytometry. 60 μl of lithium-heparin anticoagulated human whole blood was incubated for 45 min on ice with the indicated antibodies at 0.5 μg/ml in PBS. After three washing steps with cold PBS the bound antibodies were detected with PE-F(ab)2 goat anti human IgG (Jackson ImmunoResearch, 109-116-098) together with directly labeled antibodies against CD8, CD4, CD123 and CD116. After 2 washing steps with 0.9% NaCl red blood cells were lysed with Lysing Solution (BDBioscience) for 10 min in the dark. Cells were washed once with PBS and analyzed by flow cytometry to identify CCR2 expression on various cell types including monocytes. Mean fluorescence intensity (MFI) for PE was determined for these cell populations and is depicted.
Background: In flow cytometry, cells or beads pass a laser one at a time.

Assay [2] has as its target T2, Marmoset CCR2b (Marmo-CCR2b) (marmoset monkey (Callithrix jacchus)).
T2 construct: On transfected CHO cells and, as native CCR2, on marmoset monocytes (splenocytes, PBMCs)
T2 chain: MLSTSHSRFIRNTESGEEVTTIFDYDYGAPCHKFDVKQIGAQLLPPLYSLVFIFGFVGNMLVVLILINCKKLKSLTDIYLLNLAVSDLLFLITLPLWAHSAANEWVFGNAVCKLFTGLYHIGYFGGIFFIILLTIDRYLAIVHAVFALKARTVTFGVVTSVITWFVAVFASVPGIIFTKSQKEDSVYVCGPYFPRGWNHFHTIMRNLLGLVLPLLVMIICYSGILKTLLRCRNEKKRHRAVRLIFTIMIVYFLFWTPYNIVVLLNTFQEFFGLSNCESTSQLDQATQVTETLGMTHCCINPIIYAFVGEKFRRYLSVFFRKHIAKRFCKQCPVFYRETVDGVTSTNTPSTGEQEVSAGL
Description: flow cytometry on marmoset splenocytes (legend of FIG. 8).

In assay [3] the target is T3, Human CCR5 (human, UniProt P51681 1-352).
T3 construct: On transfected CHO cells; also called CD195
T3 sequence (P51681 whole entry): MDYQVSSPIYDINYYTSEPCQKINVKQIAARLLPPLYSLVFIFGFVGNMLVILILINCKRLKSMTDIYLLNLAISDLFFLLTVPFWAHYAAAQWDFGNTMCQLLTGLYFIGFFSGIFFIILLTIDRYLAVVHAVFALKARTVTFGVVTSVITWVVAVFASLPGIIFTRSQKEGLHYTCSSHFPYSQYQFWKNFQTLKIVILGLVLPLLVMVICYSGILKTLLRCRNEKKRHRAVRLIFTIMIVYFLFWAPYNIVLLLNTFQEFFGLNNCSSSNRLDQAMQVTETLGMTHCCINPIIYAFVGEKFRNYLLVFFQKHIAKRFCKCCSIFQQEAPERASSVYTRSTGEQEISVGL
Description: flow cytometry on CHO cells transfected with human CCR5.

The target in another assay is T4, Mouse CCR2 (mouse, UniProt P51683 1-373).
T4 construct: whole, on cells
T4 sequence (P51683 whole entry): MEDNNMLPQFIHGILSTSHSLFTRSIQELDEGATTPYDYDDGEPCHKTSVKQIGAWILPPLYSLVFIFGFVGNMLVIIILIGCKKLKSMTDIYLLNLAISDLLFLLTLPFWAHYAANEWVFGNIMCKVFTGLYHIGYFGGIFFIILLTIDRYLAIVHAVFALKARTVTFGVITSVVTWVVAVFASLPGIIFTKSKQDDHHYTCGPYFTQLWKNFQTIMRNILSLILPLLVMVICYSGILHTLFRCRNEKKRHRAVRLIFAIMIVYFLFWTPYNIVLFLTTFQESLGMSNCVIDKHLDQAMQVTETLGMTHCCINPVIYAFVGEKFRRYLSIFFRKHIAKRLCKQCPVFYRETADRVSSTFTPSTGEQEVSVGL
Description: flow cytometry on mouse CCR2 CHO cells, various concentrations. How it is done: Mouse CCR2 CHO cells and human CCR2 CHO cells were incubated for 45 min on ice with PBS or various concentrations of hY4T3. After 3 washing steps with cold PBS, cells were stained PE-F(ab)2 goat anti human IgG (1:300; Jackson, Cat.No.109-116-098) for 30 min on ice. After 3 washing steps with cold PBS cells were analyzed by FACS to measure mean fluorescence intensity (MFI).

The target in assay [4] is T1, Human CCR2b (hCCR2b). Description: flow cytometry on human whole blood, classical monocytes, median fluorescence intensity. As to the method:
Human heparinized whole blood was incubated with the indicated antibodies for 45 min on ice, washed three times with cold PBS, then stained with secondary PE-labeled rabbit-anti-mouse Ig (R0439, DakoCytomation 1:200) for 30 min on ice, washed 3 times with cold PBS. The 10% mouse serum was added for 10 min and after that directly labeled antibodies against CD3-APCCy7, CD8-PE-Cy7, CD4-V500, CD123-PerCP, CD304-APC, CD116-FITC, CD16-PB. After washing and lysis of red blood cells with BD Lysing solution cells were acquired on a FACSCanto-II and analyzed by FACS-DIVA software. Classical monocytes were identified by light scatter properties, expression of CD116 and absence of CD16 and CD123. Median fluorescence intensity for PE is depicted on classical monocytes.

The target in assay [5] is T3, Human CCR5. Description: summary table; binding to human CCR5.
Assay [6] concerns the target T5, Human CCR2b with the N-terminus of CCR2b of rhesus monkey (human, with rhesus monkey N-terminus, UniProt O18793 1-360 (rhesus entry)).
T5 construct: On stably transfected CHO cells
T5 chain: T1 sequence with E15G
The experiment in a line: flow cytometry on stably transfected CHO cells, 10 µg/ml. As to the method:
(§1) To further investigate the specificity of the antibodies of the present invention, binding of Y4T3 to various CCR2 constructs was tested. […] Untransfected CHO cells (empty) were also analyzed. Antibodies were tested at concentration of 10 μg/ml and incubated with the cells for 30 min on ice. After 3 washing steps with cold PBS, the bound antibodies were detected with a PE-labeled polyclonal rabbit anti-mouse immunoglobulins antibody (R0439 from Agilent Dako, diluted 1:200 in PBS) for 30 min on ice. After two washing steps with PBS, cells were analyzed by flow cytometry. Mean fluorescence intensity for PE was determined on cells and is depicted.

The target in assay [7] is T6, Human CCR2b with ECL3 domain of CCR2b of rhesus monkey (human, with rhesus monkey ECL3 domain, UniProt O18793 1-360 (rhesus entry)).
T6 construct: On stably transfected CHO cells
T6 chain: T1 sequence with S281R
The description is as above. How it is done: as §1

For assay [8], the target named is T7, Human CCR2b with the ECL2 domain of CCR2b of rhesus monkey (ECL2-hCCR2b) (human, with rhesus monkey ECL2 domain, UniProt O18793 1-360 (rhesus entry)).
T7 construct: On stably transfected CHO cells
T7 chain: T1 sequence with K183E, V189I
Description: flow cytometry on stably transfected CHO cells. How it is done: as §1

Another assay concerns the target T8, Rhesus CCR2b (rh-CCR2B) (rhesus monkey (Macaca mulatta), UniProt O18793 1-360).
T8 construct: On stably transfected CHO cells
T8 sequence: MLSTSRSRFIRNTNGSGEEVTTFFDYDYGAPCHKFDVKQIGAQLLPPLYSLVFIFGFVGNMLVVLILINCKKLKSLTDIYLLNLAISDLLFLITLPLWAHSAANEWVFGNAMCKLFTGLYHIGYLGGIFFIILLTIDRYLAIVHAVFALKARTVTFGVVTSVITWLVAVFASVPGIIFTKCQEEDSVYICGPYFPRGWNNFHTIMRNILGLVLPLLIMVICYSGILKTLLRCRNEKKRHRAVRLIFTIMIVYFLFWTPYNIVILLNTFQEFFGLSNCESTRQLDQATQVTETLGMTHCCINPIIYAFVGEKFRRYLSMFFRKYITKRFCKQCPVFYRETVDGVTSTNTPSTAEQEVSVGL
The experiment in a line: flow cytometry on stably transfected CHO cells. As to the method: as §1

For assay [9], the target named is T2, Marmoset CCR2b (Marmo-CCR2b). The experiment in a line: summary table; affinity to CCR2 expressed on marmoset PBMCs.

B1: hY4T3 (humanized Y4T3, variant H3L1) (antibody, V domains shown)
VH: QVQLVQSGAEVKKPGASVKVSCKASGSTFTRYTMHWVRQAPGQRLEWIGFIVPSTGYTKYNQKFKDRVTITRDTSASTAYMELSSLRSEDTAVYYCARNKEVDYGASWGQGTLVTVSS
VL: DVVMTQSPLSLPVTLGQPASISCKSSQSLLDSDGRTYLNWFQQRPGQSPRRLIYLVSKLDSGVPDRFSGSGSGTDFTLKITRVEAEDVGVYYCWQGSHFPQTFGQGTKVEIK
notes: detected with anti-human IgG; Human IgG1 is named as the preferred class
On to B1, for which the binding result with Human CCR2b (hCCR2b) [1] was “binds”; in assay [2] it was “binds”; with Human CCR5 [3], “no binding (tested: 10 µg/ml and 1 µg/ml)”; with Mouse CCR2, “no binding”.

B2: DOC-2 antibody (antibody, V domains shown)
VH: EVQLVESGGGLVKPGGSLKLSCVASGFTLSNYAMSWVRQSPEKRLEWVAEVSSSGIYIYYSDTVTGRFSISRDNAKNTLYLEMSSLRSEDTAIYYCARDRYAYAMDYWGHGTSVIVSS
VL: DIVMTQSPSSLAISVGQRVTLSCKSSQSLLNSYNQKNSLAWYQQKPGQSPKLLVYFASTRESGVPDRFIGSGSGTYFTLTITSVQAGDLADYFCQQHYSNPRTFGGGTRLEIK
notes: Prior art anti-CCR2 antibody; detected with anti-mouse Ig
On to B2, for which, in the assay with Human CCR2b (hCCR2b) [4], the binding result is recorded as “binds”.

B3: Antibody Y4T3 (antibody, V domains shown)
VH: QVHLQQSGTELARPGASIKLSCKTSGSTFTRYTMHWIKQRPGQGLEWIGFIVPSTGYTKYNQKFKDKATLTADKSSSTAYMHLNSLTSEDSALYYCARNKEVDYGASWGQGTLVTVSA
VL: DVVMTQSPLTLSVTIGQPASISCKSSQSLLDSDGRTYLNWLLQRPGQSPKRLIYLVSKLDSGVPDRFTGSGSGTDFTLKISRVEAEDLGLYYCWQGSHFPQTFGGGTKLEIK
notes: also called Y3T3 [sic]; Y4T4 [sic]
As to B3, the binding result is recorded as “no binding” in the assay with Human CCR5 [5]; “binds” in [6]; “binds” in assay [7]; “no binding (tested: 10 µg/ml)” in [8]; “no binding (tested: 10 µg/ml)” with Rhesus CCR2b (rh-CCR2B); “binds” in assay [9]. Further, the “fold higher affinity than the tested prior art antibodies (DOC2, 1D9, Clone 48607)” value in the assay with Human CCR2b (hCCR2b) [4] was above 5 fold.

B4: human IgG1 chimeric variant of Y4T3 (Y4T3-chim) (antibody, V domains shown)
VH: B3 VH
VL: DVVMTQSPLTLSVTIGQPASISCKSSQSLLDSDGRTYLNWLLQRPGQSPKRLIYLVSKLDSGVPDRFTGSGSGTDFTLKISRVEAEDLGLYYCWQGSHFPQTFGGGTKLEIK
notes: also called H0L0
For B4, the binding result with Human CCR5 [3] was “no binding (tested: 10 µg/ml and 1 µg/ml)”.
